T1: Abp1, P15891
T1 sequence (P15891 535-592, looked up): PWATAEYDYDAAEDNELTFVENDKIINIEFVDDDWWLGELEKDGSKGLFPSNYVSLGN

T2: Bbc1, P47068
T2 sequence (P47068 1-78, looked up): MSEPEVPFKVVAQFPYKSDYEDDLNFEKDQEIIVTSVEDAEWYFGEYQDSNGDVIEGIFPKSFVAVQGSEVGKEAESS

T3: Boi1, P38041
T3 sequence (P38041 1-86, looked up): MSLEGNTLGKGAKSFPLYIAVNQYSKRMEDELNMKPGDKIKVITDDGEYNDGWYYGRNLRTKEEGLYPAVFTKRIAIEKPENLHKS

T4: Boi2, P39969
T4 sequence (P39969 32-116, looked up): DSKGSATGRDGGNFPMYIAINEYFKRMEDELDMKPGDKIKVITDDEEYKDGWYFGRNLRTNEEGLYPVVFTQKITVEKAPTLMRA

T5: Bud14, P27637
T5 sequence (P27637 247-328, looked up): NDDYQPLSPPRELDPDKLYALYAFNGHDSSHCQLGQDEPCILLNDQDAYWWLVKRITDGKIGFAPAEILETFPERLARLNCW

T6: Bzz1-1, P38822
T6 sequence (P38822 478-572, looked up): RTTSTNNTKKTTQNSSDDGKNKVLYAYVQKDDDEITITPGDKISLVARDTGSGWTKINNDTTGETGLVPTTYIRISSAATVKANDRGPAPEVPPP

T7: Bzz1-2, P38822
T7 sequence (P38822 568-633, looked up): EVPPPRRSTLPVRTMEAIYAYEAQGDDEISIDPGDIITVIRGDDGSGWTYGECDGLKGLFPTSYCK

T8: Cdc25, P04821
T8 sequence (P04821 50-136, looked up): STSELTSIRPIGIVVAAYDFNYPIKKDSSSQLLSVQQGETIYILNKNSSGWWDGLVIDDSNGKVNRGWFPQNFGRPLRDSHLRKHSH

T9: Cyk3, Q07533
T9 sequence (Q07533 1-83, looked up): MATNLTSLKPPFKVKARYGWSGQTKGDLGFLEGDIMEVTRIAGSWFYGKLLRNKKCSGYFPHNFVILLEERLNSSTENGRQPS

T10: Fus1, P11710
T10 sequence (P11710 432-512, looked up): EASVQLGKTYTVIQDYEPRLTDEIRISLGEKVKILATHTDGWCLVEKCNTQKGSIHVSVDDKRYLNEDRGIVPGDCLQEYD

T11: Hof1, Q05080
T11 sequence (Q05080 590-669, looked up): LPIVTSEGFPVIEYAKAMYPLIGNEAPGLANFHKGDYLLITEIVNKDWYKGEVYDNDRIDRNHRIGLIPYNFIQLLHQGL

T12: Hse1, P38753
T12 sequence (P38753 208-285, looked up): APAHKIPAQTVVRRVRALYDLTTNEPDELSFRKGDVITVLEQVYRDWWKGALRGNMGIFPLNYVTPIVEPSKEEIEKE

T13: Lsb1, P53281
T13 sequence (P53281 45-122, looked up): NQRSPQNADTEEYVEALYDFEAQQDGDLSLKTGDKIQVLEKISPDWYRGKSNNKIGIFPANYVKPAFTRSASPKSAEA

T14: Lsb3, P43603
T14 sequence (P43603 385-451, looked up): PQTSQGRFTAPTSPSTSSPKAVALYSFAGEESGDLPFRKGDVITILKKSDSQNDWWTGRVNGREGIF

T15: Lsb4, P32793
T15 sequence (P32793 402-468, looked up): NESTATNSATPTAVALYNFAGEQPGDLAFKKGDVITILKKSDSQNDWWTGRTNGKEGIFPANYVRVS

T16: Myo5, Q04439
T16 sequence (Q04439 1072-1160, looked up): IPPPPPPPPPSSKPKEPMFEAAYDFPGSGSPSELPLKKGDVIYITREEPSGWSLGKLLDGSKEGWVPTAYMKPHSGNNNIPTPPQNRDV

T17: Nbp2, Q12163
T17 sequence (Q12163 103-180, looked up): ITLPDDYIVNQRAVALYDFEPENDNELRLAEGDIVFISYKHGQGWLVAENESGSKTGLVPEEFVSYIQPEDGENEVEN

T18: Pex13, P80667
T18 sequence (P80667 295-386, looked up): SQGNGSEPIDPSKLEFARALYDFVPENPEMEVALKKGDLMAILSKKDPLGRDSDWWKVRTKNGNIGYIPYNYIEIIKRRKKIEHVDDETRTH

T19: Pin3, Q06449
T19 sequence (Q06449 53-122, looked up): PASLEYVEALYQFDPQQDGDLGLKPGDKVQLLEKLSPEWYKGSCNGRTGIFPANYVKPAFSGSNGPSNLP

T20: Sla1-2, P32790
T20 sequence (P32790 60-140, looked up): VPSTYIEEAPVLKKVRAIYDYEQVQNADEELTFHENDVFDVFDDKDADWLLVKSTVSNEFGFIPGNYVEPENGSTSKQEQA

T21: Sla1-3, P32790
T21 sequence (P32790 344-424, looked up): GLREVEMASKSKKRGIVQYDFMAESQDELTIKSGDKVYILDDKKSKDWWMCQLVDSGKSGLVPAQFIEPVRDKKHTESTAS

B1: unnamed (peptide)
chain: FFRRSELYLPNSSKA
B2: unnamed (peptide)
chain: LLRRTIPKRPFYHVL
B3: unnamed (peptide)
chain: NFFRKKLGIPRKLKR
B4: unnamed (peptide)
chain: RRLRDKYKLPIVDAD
B5: unnamed (peptide)
chain: TKRKRPARLIFYDSK
B6: unnamed (peptide)
chain: WRPRIVPILPYITRL

These binders were tested against T1, Abp1, P15891 (assay: SPOT array). Settings: median of control spots 935.

Row | Binder | SPOT intensity
1 | B1 | 22
2 | B2 | 18
3 | B3 | 99
4 | B4 | 18
5 | B5 | 157
6 | B6 | 10

What follows are binders tested against T2, Bbc1, P47068 (assay: SPOT array). Settings: median of control spots 796.

Row | Binder | SPOT intensity
7 | B1 | 19
8 | B2 | 184
9 | B3 | 101
10 | B4 | 14
11 | B5 | 308
12 | B6 | 87

What follows are binders tested against Bem1-1, P29366 (assay: SPOT array). Settings: median of control spots 4282.
Chain of Bem1-1, P29366 (P29366 55-141): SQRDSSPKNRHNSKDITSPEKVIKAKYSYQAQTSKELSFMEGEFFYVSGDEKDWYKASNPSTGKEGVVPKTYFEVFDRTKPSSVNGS

Row | Binder | SPOT intensity
13 | B1 | 3
14 | B2 | 0
15 | B3 | 1
16 | B4 | 0
17 | B5 | 0
18 | B6 | 0

Each binder was assayed against Bem1-2, P29366 (assay: SPOT array). Settings: median of control spots 4347.
Chain of Bem1-2, P29366 (P29366 139-227): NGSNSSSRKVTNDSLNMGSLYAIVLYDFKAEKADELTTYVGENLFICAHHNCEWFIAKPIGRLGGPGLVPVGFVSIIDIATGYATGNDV

Row | Binder | SPOT intensity
19 | B1 | 15
20 | B2 | 108
21 | B3 | 13
22 | B4 | 2
23 | B5 | 6
24 | B6 | 94

Each binder was assayed against T3, Boi1, P38041 (assay: SPOT array). Settings: median of control spots 1162.

Row | Binder | SPOT intensity
25 | B1 | 3
26 | B2 | 7
27 | B3 | 14
28 | B4 | 6
29 | B5 | 39
30 | B6 | 0

The binders below were run against T4, Boi2, P39969 (assay: SPOT array). Settings: median of control spots 1161.

Row | Binder | SPOT intensity
31 | B1 | 0
32 | B2 | 2
33 | B3 | 2
34 | B4 | 0
35 | B5 | 9
36 | B6 | 0

What follows are binders tested against T5, Bud14, P27637 (assay: SPOT array). Settings: median of control spots 956.

Row | Binder | SPOT intensity
37 | B1 | 10
38 | B2 | 13
39 | B3 | 43
40 | B4 | 26
41 | B5 | 29
42 | B6 | 2

Each binder was assayed against T6, Bzz1-1, P38822 (assay: SPOT array). Settings: median of control spots 4446.

Row | Binder | SPOT intensity
43 | B1 | 1
44 | B2 | 0
45 | B3 | 0
46 | B4 | 0
47 | B5 | 0
48 | B6 | 0

These binders were tested against T7, Bzz1-2, P38822 (assay: SPOT array). Settings: median of control spots 4538.

Row | Binder | SPOT intensity
49 | B1 | 5
50 | B2 | 13
51 | B3 | 7
52 | B4 | 2
53 | B5 | 5
54 | B6 | 0

These binders were tested against T8, Cdc25, P04821 (assay: SPOT array). Settings: median of control spots 969.

Row | Binder | SPOT intensity
55 | B1 | 115
56 | B2 | 44
57 | B3 | 138
58 | B4 | 18
59 | B5 | 61
60 | B6 | 14

The binders below were run against T9, Cyk3, Q07533 (assay: SPOT array). Settings: median of control spots 1451.

Row | Binder | SPOT intensity
61 | B1 | 0
62 | B2 | 0
63 | B3 | 4
64 | B4 | 1
65 | B5 | 7
66 | B6 | 0

Each binder was assayed against T10, Fus1, P11710 (assay: SPOT array). Settings: median of control spots 1200.

Row | Binder | SPOT intensity
67 | B1 | 37
68 | B2 | 14
69 | B3 | 219
70 | B4 | 58
71 | B5 | 29
72 | B6 | 8

Each binder was assayed against GST (assay: SPOT array). Settings: median of control spots 978.

Row | Binder | SPOT intensity
73 | B1 | 0
74 | B2 | 1
75 | B3 | 0
76 | B4 | 0
77 | B5 | 1
78 | B6 | 0

The binders below were run against T11, Hof1, Q05080 (assay: SPOT array). Settings: median of control spots 4086.

Row | Binder | SPOT intensity
79 | B1 | 25
80 | B2 | 52
81 | B3 | 29
82 | B4 | 9
83 | B5 | 4
84 | B6 | 770

These binders were tested against T12, Hse1, P38753 (assay: SPOT array). Settings: median of control spots 1727.

Row | Binder | SPOT intensity
85 | B1 | 43
86 | B2 | 43
87 | B3 | 130
88 | B4 | 9
89 | B5 | 11
90 | B6 | 11

What follows are binders tested against T13, Lsb1, P53281 (assay: SPOT array). Settings: median of control spots 388.

Row | Binder | SPOT intensity
91 | B1 | 2
92 | B2 | 139
93 | B3 | 234
94 | B4 | 48
95 | B5 | 4
96 | B6 | 22

These binders were tested against T14, Lsb3, P43603 (assay: SPOT array). Settings: median of control spots 406.

Row | Binder | SPOT intensity
97 | B1 | 0
98 | B2 | 2
99 | B3 | 1
100 | B4 | 0
101 | B5 | 6
102 | B6 | 0

What follows are binders tested against T15, Lsb4, P32793 (assay: SPOT array). Settings: median of control spots 397.

Row | Binder | SPOT intensity
103 | B1 | 0
104 | B2 | 2
105 | B3 | 1
106 | B4 | 0
107 | B5 | 7
108 | B6 | 6

These binders were tested against Myo3, P36006 (assay: SPOT array). Settings: median of control spots 468.

Row | Binder | SPOT intensity
109 | B1 | 0
110 | B2 | 0
111 | B3 | 3
112 | B4 | 0
113 | B5 | 7
114 | B6 | 0

These binders were tested against T16, Myo5, Q04439 (assay: SPOT array). Settings: median of control spots 471.

Row | Binder | SPOT intensity
115 | B1 | 0
116 | B2 | 0
117 | B3 | 0
118 | B4 | 0
119 | B5 | 3
120 | B6 | 0

The binders below were run against T17, Nbp2, Q12163 (assay: SPOT array). Settings: median of control spots 357.

Row | Binder | SPOT intensity
121 | B1 | 14
122 | B2 | 100
123 | B3 | 72
124 | B4 | 7
125 | B5 | 183
126 | B6 | 1

The binders below were run against T18, Pex13, P80667 (assay: SPOT array). Settings: median of control spots 1341.

Row | Binder | SPOT intensity
127 | B1 | 10
128 | B2 | 12
129 | B3 | 14
130 | B4 | 0
131 | B5 | 1
132 | B6 | 10

The binders below were run against T19, Pin3, Q06449 (assay: SPOT array). Settings: median of control spots 2171.

Row | Binder | SPOT intensity
133 | B1 | 1
134 | B2 | 0
135 | B3 | 7
136 | B4 | 0
137 | B5 | 0
138 | B6 | 8

What follows are binders tested against Rvs167, P39743 (assay: SPOT array). Settings: median of control spots 2707.
Chain of Rvs167, P39743 (P39743 419-482): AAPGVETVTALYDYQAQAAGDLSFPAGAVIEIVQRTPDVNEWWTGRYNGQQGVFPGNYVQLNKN

Row | Binder | SPOT intensity
139 | B1 | 5
140 | B2 | 31
141 | B3 | 3
142 | B4 | 1
143 | B5 | 0
144 | B6 | 36

These binders were tested against Sho1, P40073 (assay: SPOT array). Settings: median of control spots 1148.
Chain of Sho1, P40073 (P40073 287-367): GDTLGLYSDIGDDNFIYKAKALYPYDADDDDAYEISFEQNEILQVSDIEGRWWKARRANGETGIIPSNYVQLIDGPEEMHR

Row | Binder | SPOT intensity
145 | B1 | 62
146 | B2 | 26
147 | B3 | 107
148 | B4 | 19
149 | B5 | 91
150 | B6 | 3

These binders were tested against T20, Sla1-2, P32790 (assay: SPOT array). Settings: median of control spots 712.

Row | Binder | SPOT intensity
151 | B1 | 0
152 | B2 | 0
153 | B3 | 0
154 | B4 | 0
155 | B5 | 2
156 | B6 | 0

The binders below were run against T21, Sla1-3, P32790 (assay: SPOT array). Settings: median of control spots 5475.

Row | Binder | SPOT intensity
157 | B1 | 53
158 | B2 | 245
159 | B3 | 58
160 | B4 | 34
161 | B5 | 33
162 | B6 | 9
